According to publication PMC6398391 (The FEBS journal, 2018):

Target: c-MYC:MAX bHLHZip heterodimer (MYC 352-437, MAX 22-102) (human, UniProt P01106-1 352-437; P61244 22-102)
Assay: NMR titration; unlabeled MYC:MAX dimer titrated into 15N-labeled INI1 RPT1 (147 uM); 1H,15N HSQC; fast exchange; shifts fitted to a single-site binding curve; 25 °C
Conditions: both partners purified

Sequence of c-MYC:MAX bHLHZip heterodimer (MYC 352-437, MAX 22-102) (P01106 367-452, chain 1 of 2): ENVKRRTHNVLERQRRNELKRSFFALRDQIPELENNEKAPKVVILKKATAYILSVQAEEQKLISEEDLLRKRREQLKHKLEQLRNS
Sequence of c-MYC:MAX bHLHZip heterodimer (MYC 352-437, MAX 22-102) (P61244 22-102, chain 2 of 2): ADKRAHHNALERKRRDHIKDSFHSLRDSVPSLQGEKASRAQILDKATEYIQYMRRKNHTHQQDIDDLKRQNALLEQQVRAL

Kd: 44 ± 6 µM
B1: INI1/hSNF5 RPT1 (residues 184-258) (domain or fragment, human, UniProt Q12824 184-258, looked up)
chain: EVLVPIRLDMEIDGQKLRDAFTWNMNEKLMTPEMFSEILCDDLDLNPLTFVPAIASAIRQQIESYPTDSILEDQS
